This note sets out measurements from IntAct's records for PubMed 16717101.

To fix the notation:
B1: Regulatory protein SIR4 (Saccharomyces cerevisiae), P11978 (parent)
chain: MPNDNKTPNRSSTPKFTKKPVTPNDKIPEREEKSNEVKTPKIPLFTFAKSKNYSRPSTAIHTSPHQPSDVKPTSHKQLQQPKSSPLKKNNYNSFPHSNLEKISNSKLLSLLRSKTSAGRIESNNPSHDASRSLASFEQTAFSRHAQQQTSTFNSKPVRTIVPISTSQTNNSFLSGVKSLLSEEKIRDYSKEILGINLANEQPVLEKPLKKGSADIGASVISLTKDKSIRKDTVEEKKEEKLNIGKNFAHSDSLSVPKVSAGDSGISPEESKARSPGIAKPNAIQTEVYGINEESTNERLEINQEKPVKLDENSANSTVASALDTNGTSATTETLTSKKIVPSPKKVAIDQDKITLHDEKTLAPSKHQPITSEQKMKEDADLKRMEILKSPHLSKSPADRPQGRRNSRNFSTRDEETTKLAFLVEYEGQENNYNSTSRSTEKKNDMNTSAKNKNGENKKIGKRPPEIMSTEAHVNKVTEETTKQIQSVRIDGRKVLQKVQGESHIDSRNNTLNVTPSKRPQLGEIPNPMKKHKPNEGRTPNISNGTINIQKKLEPKEIVRDILHTKESSNEAKKTIQNPLNKSQNTALPSTHKVTQKKDIKIGTNDLFQVESAPKISSEIDRENVKSKDEPVSKAVESKSLLNLFSNVLKAPFIKSESKPFSSDALSKEKANFLETIASTEKPENKTDKVSLSQPVSASKHEYSDNFPVSLSQPSKKSFANHTEDEQIEKKKICRGRMNTIITHPGKMELVYVSDSDDSSSDNDSLTDLESLSSGESNEIKVTNDLDTSAEKDQIQAGKWFDPVLDWRKSDRELTKNILWRIADKTTYDKETITDLIEQGIPKHSYLSGNPLTSVTNDICSVENYETSSAFFYQQVHKKDRLQYLPLYAVSTFENTNNTEKNDVTNKNINIGKHSQEQNSSSAKPSQIPTVSSPLGFEETKLSTTPTKSNRRVSHSDTNSSKPKNTKENLSKSSWRQEWLANLKLISVSLVDEFPSELSDSDRQIINEKMQLLKDIFANNLKSAISNNFRESDIIILKGEIEDYPMSSEIKIYYNELQNKPDAKKARFWSFMKTQRFVSNMGFDIQKSCEPVSISTSVKPHVVEPEHMADAKIMPKDILQITKKPLMVKNVKPSSPPDVKSLVQLSTMETKTLPEKKQFDSIFNSNKAKIIPGNGKHASENISLSFSRPASYGYFSVGKRVPIVEDRRVKQLDDITDSNTTEILTSVDVLGTHSQTGTQQSNMYTSTQKTELEIDNKDSVTECSKDMKEDGLSFVDIVLSKAASALDEKEKQLAVANEIIRSLSDEVMRNEIRITSLQGDLTFTKKCLENARSQISEKDAKINKLMEKDFQVNKEIKPY

In the assay the parent is B1. Particulars: with sir3_yeast SIR3, P06701.
Sequence of sir3_yeast SIR3, P06701 (P06701 whole entry): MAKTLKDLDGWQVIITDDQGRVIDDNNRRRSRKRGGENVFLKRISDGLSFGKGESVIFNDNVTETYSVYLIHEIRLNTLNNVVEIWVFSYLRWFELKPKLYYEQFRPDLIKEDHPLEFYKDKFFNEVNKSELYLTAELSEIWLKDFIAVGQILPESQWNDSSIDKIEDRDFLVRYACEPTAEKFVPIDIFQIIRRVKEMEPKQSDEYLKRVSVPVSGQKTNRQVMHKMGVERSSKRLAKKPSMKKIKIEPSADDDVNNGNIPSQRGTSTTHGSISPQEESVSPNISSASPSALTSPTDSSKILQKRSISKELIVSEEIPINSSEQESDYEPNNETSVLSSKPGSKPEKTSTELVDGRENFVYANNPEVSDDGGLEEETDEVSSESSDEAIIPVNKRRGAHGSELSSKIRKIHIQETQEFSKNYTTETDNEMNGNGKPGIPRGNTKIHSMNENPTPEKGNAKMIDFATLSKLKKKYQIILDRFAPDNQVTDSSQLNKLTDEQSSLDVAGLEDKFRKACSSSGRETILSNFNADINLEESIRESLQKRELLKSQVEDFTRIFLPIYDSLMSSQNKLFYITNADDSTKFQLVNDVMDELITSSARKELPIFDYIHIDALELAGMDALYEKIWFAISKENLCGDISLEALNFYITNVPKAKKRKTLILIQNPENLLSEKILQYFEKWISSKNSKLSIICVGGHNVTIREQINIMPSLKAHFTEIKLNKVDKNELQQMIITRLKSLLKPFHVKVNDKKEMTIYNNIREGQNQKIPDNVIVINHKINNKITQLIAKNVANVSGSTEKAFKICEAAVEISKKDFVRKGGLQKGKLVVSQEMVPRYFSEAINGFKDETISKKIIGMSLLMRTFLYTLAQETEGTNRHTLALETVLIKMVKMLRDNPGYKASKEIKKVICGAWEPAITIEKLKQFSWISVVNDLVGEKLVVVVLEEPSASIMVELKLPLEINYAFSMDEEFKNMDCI
With M1307N, the “effect of a mutation on the interaction” value is given as “decreasing interaction”.
